Literature values in patent publication US20050119762A1, “Hydrogel providing cell-specific ingrowth” (priority 2003, published 2005).

Legend:
MMP-2 [1] = target: T1, MMP-2 (Homo sapiens, UniProt P08253)
T1 sequence (P08253 110-660): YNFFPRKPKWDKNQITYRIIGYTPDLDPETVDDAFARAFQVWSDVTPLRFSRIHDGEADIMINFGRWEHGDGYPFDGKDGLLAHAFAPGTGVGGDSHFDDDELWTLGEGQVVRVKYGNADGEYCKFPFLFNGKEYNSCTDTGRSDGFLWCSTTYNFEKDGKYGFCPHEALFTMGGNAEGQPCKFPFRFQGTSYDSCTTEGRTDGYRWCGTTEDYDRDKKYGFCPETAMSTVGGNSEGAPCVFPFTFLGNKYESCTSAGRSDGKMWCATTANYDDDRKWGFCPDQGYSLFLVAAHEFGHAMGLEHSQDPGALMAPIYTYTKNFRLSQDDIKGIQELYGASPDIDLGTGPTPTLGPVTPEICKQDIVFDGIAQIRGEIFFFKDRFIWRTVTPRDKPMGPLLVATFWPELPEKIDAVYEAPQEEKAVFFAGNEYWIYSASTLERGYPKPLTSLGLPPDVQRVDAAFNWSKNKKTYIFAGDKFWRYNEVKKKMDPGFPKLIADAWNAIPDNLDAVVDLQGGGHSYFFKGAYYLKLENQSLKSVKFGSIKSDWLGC

MMP-9 [2] = target: T2, MMP-9 (Homo sapiens, UniProt P14780); settings: phage clones selected by MMP-9; for % Hydrolysis 1: experiment 1; for % Hydrolysis 2: experiment 2
T2 construct: a recombinant form of the catalytic domain of MMP-9 expressed in HEK 293 cells; host or cells: HEK 293 cells
T2 sequence (P14780 107-444 limits assumed): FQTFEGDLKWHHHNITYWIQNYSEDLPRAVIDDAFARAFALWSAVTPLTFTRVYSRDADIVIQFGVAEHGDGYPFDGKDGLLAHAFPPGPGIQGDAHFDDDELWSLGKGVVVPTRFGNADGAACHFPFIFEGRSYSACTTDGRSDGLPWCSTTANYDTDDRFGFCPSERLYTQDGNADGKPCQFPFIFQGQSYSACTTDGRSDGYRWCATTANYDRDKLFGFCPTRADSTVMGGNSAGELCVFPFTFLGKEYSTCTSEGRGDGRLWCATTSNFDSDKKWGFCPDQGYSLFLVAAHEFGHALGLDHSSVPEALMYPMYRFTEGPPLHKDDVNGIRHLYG

MMP-9 [3] = target: T2, MMP-9; settings: peptides based on phage clones
MMP-2 [4] = target: T1, MMP-2; settings: synthesized peptides, reciprocal plots
MMP-2 [5] = target: T1, MMP-2; settings: phage substrate clones hydrolysed by activated MMP-2; for % Hydrolysis exp 1: experiment 1; for % Hydrolysis exp 2: experiment 2

## GCRDSGESLAYYTADRCG
MMP-2 [1]
  hydrolysis by MMP-2: sensitive to hydrolysis

## SG ↓ LKALMITA (SGLKALMITA; peptide substrate based on phage clones) [Peptide A7]
MMP-9 [2]
  % Hydrolysis 1: 79.8%
  % Hydrolysis 2: 76%
MMP-9 [3]
  MMP-9 kcat: 30 S^−1

## SGAKPRA ↓ LTA (SGAKPRALTA; peptide substrate based on phage clones) [Peptide A3]
MMP-2 [4]
  MMP-2 kcat: 400 s⁻¹

## SGANISD ↓ LTA (SGANISDLTA; peptide substrate based on phage clones) [Peptide B37]
MMP-2 [4]
  MMP-2 kcat: 353 s⁻¹
MMP-2 [5]
  % Hydrolysis exp 1: 97%
  % Hydrolysis exp 2: 95%

## SGAPSW ↓ LLTA (SGAPSWLLTA; peptide substrate based on phage clones) [Peptide A13P]
MMP-2 [4]
  MMP-2 kcat: 204 s⁻¹

## SGAVRW ↓ LLTA (SGAVRWLLTA; peptide substrate based on phage clones) [Peptide A13R]
MMP-2 [4]
  MMP-2 kcat: 28 s⁻¹

## SGAVSW ↓ LLTA (SGAVSWLLTA; peptide sequence based on phage clones) [Peptide A13]
MMP-9 [2]
  % Hydrolysis 1: 78.9%
  % Hydrolysis 2: 72%
MMP-2 [4]
  MMP-2 kcat: 105 s⁻¹
MMP-2 [5]
  % Hydrolysis exp 1: 100%
  % Hydrolysis exp 2: 93%

## SGESLAY ↓ YTA (SGESLAYYTA; peptide substrate based on phage clones) [Peptide B74]
MMP-2 [4]
  MMP-2 kcat: 622 s⁻¹
MMP-2 [5]
  % Hydrolysis exp 1: 81%
  % Hydrolysis exp 2: 90%

## SGESLRY ↓ YTA (SGESLRYYTA; peptide substrate based on phage clones) [Peptide B74R]
MMP-2 [4]
  MMP-2 kcat: 61 s⁻¹

## SGESPAY ↓ YTA (SGESPAYYTA; peptide substrate based on phage clones) [Peptide B74P]
MMP-2 [4]
  MMP-2 kcat: 264 s⁻¹

## SGFGSRY ↓ LTA (SGFGSRYLTA; peptide substrate based on phage clones) [Peptide A19]
MMP-9 [2]
  % Hydrolysis 1: 45%
  % Hydrolysis 2: 50%
MMP-9 [3]
  MMP-9 kcat: 11 S^−1

## SGHMHAA ↓ LTA (SGHMHAALTA; peptide substrate based on phage clones) [Peptide A21A]
MMP-2 [4]
  MMP-2 kcat: 601 s⁻¹

## SGHMHKA ↓ LTA (SGHMHKALTA; peptide substrate based on phage clones) [Peptide A21]
MMP-2 [4]
  MMP-2 kcat: 124 s⁻¹
MMP-2 [5]
  % Hydrolysis exp 1: 30%
  % Hydrolysis exp 2: 49%

## SGKGPRQ ↓ ITA (SGKGPRQITA; peptide substrate based on phage clones) [Peptide C15]
MMP-9 [2]
  % Hydrolysis 1: 100%
  % Hydrolysis 2: 98%
MMP-9 [3]
  MMP-9 kcat: 703 S^−1

## SGKIPRR ↓ LTA (SGKIPRRLTA; peptide substrate based on phage clones) [Peptide A11m1]
MMP-9 [3]
  MMP-9 kcat: 224 S^−1

## SGKIPRT ↓ ATA (SGKIPRTATA; peptide substrate based on phage clones) [Peptide A11m2]
MMP-9 [3]
  MMP-9 kcat: 9.4 S^−1

## SGKIPRT ↓ LTA (SGKIPRTLTA; peptide substrate based on phage clones) [Peptide A11]
MMP-9 [2]
  % Hydrolysis 1: 100%
  % Hydrolysis 2: 100%
MMP-9 [3]
  MMP-9 kcat: 86.4 S^−1

## SGLRLAA ↓ ITA (SGLRLAAITA; peptide substrates based on phage clones) [Peptide B49]
MMP-2 [4]
  MMP-2 kcat: 510 s⁻¹
MMP-2 [5]
  % Hydrolysis exp 1: 100%
  % Hydrolysis exp 2: 100%

## SGLRPAK ↓ STA (SGLRPAKSTA; peptide substrate based on phage clones) [Peptide A18]
MMP-9 [2]
  % Hydrolysis 1: 28.9%
  % Hydrolysis 2: 30%
MMP-9 [3]
  MMP-9 kcat: 78 S^−1

## SGNRYSS ↓ LTA (SGNRYSSLTA; peptide substrate based on phage clones) [Peptide A34]
MMP-2 [4]
  MMP-2 kcat: 202 s⁻¹
MMP-2 [5]
  % Hydrolysis exp 1: 100%
  % Hydrolysis exp 2: 100%

## SGPLF ↓ YSVTA (SGPLFYSVTA; peptide substrate based on phage clones) [Peptide A10]
MMP-9 [2]
  % Hydrolysis 1: 100%
  % Hydrolysis 2: 100%
MMP-2 [5]
  % Hydrolysis exp 1: 36%
  % Hydrolysis exp 2: 40%
MMP-9 [3]
  MMP-9 kcat: 20 S^−1

## SGPRA ↓ VSTTA (SGPRAVSTTA; peptide substrate based on phage clones) [Peptide A6]
MMP-9 [2]
  % Hydrolysis 1: 100%
  % Hydrolysis 2: 99%
MMP-2 [5]
  % Hydrolysis exp 1: 30%
  % Hydrolysis exp 2: 44%
MMP-9 [3]
  MMP-9 kcat: 178 S^−1

## SGQPHY ↓ LTTA (SGQPHYLTTA; peptide substrate based on phage clones) [Peptide B1]
MMP-9 [2]
  % Hydrolysis 1: 79.6%
  % Hydrolysis 2: 85%
MMP-9 [3]
  MMP-9 kcat: 9 S^−1

## SGRR ↓ LIHHTA (SGRRLIHHTA; peptide substrates based on phage clones) [Peptide C11]
MMP-9 [2]
  % Hydrolysis 1: 94.9%
  % Hydrolysis 2: 74%

## SGRR ↓ LLSRTA (SGRRLLSRTA; peptide substrates based on phage clones) [Peptide A16]
MMP-9 [2]
  % Hydrolysis 1: 20.2%
  % Hydrolysis 2: 11%

## SGRSLRR ↓ LTA (SGRSLRRLTA; peptide substrate based on phage clones) [Peptide C9R]
MMP-2 [4]
  MMP-2 kcat: 302 s⁻¹

## SGRSLSR ↓ LTA (SGRSLSRLTA; peptide substrate based on phage clones) [Peptide C9]
MMP-2 [4]
  MMP-2 kcat: 740 s⁻¹
MMP-2 [5]
  % Hydrolysis exp 1: 100%
  % Hydrolysis exp 2: 100%
